Assays:
db/db mice [1] = assay: Y-maze (short-term memory) test, Example 1; type: in vivo, mouse; conditions: db/db mice 30-week-old, i.p. twice a week, 20 days after start (after seven administrations); GIP 5 nmol/kg, anti-GIP antibody 1 mg/kg; FIG. 2
Protocol: (§1) Six-week-old leptin receptor deficient C57BLKS/J male mice (db/db mice, Oriental Yeast Co., Ltd.) were transferred (room temperature: 23° C., humidity: 55±10%, light period: 7:00 to 19:00) and were fed with food and water ad libitum. The food was CE-2 (CLEA Japan, Inc.), and the mice were acclimated for 2 weeks under the above-mentioned environment and were then used for testing.
(§2) Mouse-derived GIP (manufactured by AnaSpec, Inc.) was dissolved in physiological saline at a concentration of 500 nM to give a GIP solution. […]
(§3) The test was performed 10 days before the start of the administration and 20 days after the start of the administration (after seven administrations) to measure the short-term memory and learning ability (working memory). Each mouse was placed at an end of a plastic Y-maze (manufactured by Noldus Information Technology) in which the arms each have a length of 40 cm and a height of 12 cm and form an angle of 120° with each other, and the behavior of the mouse was video-recorded for 10 minutes to measure the order and the number of entries into the arms. The score of short-term memory and learning ability was evaluated by the spontaneous alternation behavior change rate (see the following calculation formula). […]

db/db mice [2] = assay: Novel object recognition (long-term memory) test, Example 1; type: in vivo, mouse; conditions: db/db mice 30-week-old, i.p. twice a week, 15 days after start (after six administrations); GIP 5 nmol/kg, anti-GIP antibody 1 mg/kg; FIG. 3
Protocol: as §1, §2
The test was performed 5 days before the start of the administration and 15 days after the start of the administration (after six administrations) to measure the long-term memory and learning ability (reference memory). […] On the following day, two identical objects (rubber objects wrapped with blue rubber tape: columns each having 4 cm diameter and 3.5 cm height) were placed in the box (at a position with a space of 10 cm in length and 10 cm in width from the wall), and the behavior of the mouse was video-recorded for 5 minutes to measure the number of recognitions (the number of times the mouse approached each object within 1 cm) (training trial, on the 14th day from the start of the administration). […] The score of long-term memory and learning ability was evaluated by the recognition rate of the novel object in the retention trial (see the following calculation formula). […]

GIP(3-42) = target: T1, GIP(3-42) (Homo sapiens, UniProt P09681); assay: Sandwich ELISA, cross-reactivity with inactive GIP; type: binding; conditions: biotinylated antibody 1 μg/mL as detection antibody, GIP 8.2 to 2000 pg/mL, FIG. 1
T1 sequence (P09681 54-93): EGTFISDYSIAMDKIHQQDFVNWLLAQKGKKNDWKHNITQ
Protocol: (§4) The reactivity between the monoclonal antibody prepared in Production Example 1 and active GIP was confirmed by ELISA. The amino group of the anti-active GIP monoclonal antibody was biotinylated with NH2 group biotinylation kit (manufactured by Dojindo Laboratories). ELISA was performed using the produced biotinylated anti-active GIP monoclonal antibody at 1 μg/mL instead of a detection antibody, GIP detection antibody (biotinylated anti-total GIP monoclonal antibody), included in Human (total) GIP ELISA kit (manufactured by EMD Millipore Corporation). A […] dilution series of GIP(1-42) or GIP(3-42) was prepared in 6 steps (8.2 to 2000 pg/mL) with a 2000 pg/mL solution as the highest concentration. By using an anti-total GIP monoclonal antibody (included in Human GIP (total) ELISA kit manufactured by EMD Millipore Corporation) as a capture antibody, the biotinylated anti-active GIP monoclonal antibody as a detection antibody, and a peroxidase-streptavidin conjugate for detection, sandwich ELISA was conducted to prepare a calibration curve with GIP concentration on the X-axis and 450 nm-590 nm absorbance on the Y-axis (FIG. 1).

GIP(1-42) = target: T2, GIP(1-42) (Homo sapiens, UniProt P09681); assay: Sandwich ELISA, reactivity with active GIP; type: binding; conditions: biotinylated antibody 1 μg/mL as detection antibody, GIP 8.2 to 2000 pg/mL, FIG. 1
T2 sequence (P09681 52-93): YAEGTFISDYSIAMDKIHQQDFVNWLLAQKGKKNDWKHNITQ
Protocol: as §4

[3] = system: C57BL/6J mice (107-week-old); assay: Y-maze (short-term memory) test in aged mice, Example 3; type: in vivo, mouse; conditions: aged C57BL/6J mice (107-week-old), 0.5 mg/kg i.p. once a week, 6 times; compared to non-administration and control group; FIG. 5
Protocol: (§5) Four-week-old C57BL/6J male mice (CLEA Japan, Inc.) were transferred (room temperature: 23° C., humidity: 55±10%, light period: 7:00 to 19:00) and were fed with food (D12450K, Research Diets, Inc.) and water ad libitum for 111 weeks.
(§6) The anti-active GIP antibody produced in Production Example 1 was dissolved in physiological saline at a concentration of 0.05 mg/mL to give an anti-GIP antibody solution.
(§7) Physiological saline (control group) or the anti-GIP antibody solution (0.5 mg/kg body weight) (anti-GIP antibody administration group) was intraperitoneally administered to C57BL/6J mice (107-week-old) once a week (9:00 to 10:00 a.m.), 6 times in total.
as §3, with “1 week” for “10 days”, “1 week” for “20 days”, “two administrations), 3 weeks after the start (after four administrations), and 5 weeks after the start (after six” for “seven”, “arms.” for “arms. The score of short-term memory and learning ability was evaluated by the spontaneous alternation behavior change rate (see the following calculation formula).”

[4] = target: T3, PEGylated N-terminus 15 amino acids of active GIP (GIP(1-15)) (Homo sapiens, UniProt P09681); assay: Hybridoma screening/cloning ELISA with immobilized antigen (1); type: binding; conditions: hybridoma culture supernatant, immobilized PEGylated GIP(1-15)
T3 construct: PEGylated N-terminus 15 amino acids of active GIP (GIP(1-15)); made in house; host or cells: peptide synthesis (no expression host)
Protocol: (§8) Polyethylene glycol was added to N-terminus 15 amino acids of active GIP (GIP(1-15)) (PEGylation (polyethylene glycolation)), and keyhole limpet hemocyanin (KLH) was then chemically bonded thereto to produce KLH-linked PEGylated GIP (1-15) as an immunogen.

[5] = system: C57BL/6J mice (107-week-old); assay: Novel object recognition (long-term memory) test in aged mice, Example 3; type: in vivo, mouse; conditions: aged C57BL/6J mice (107-week-old), 0.5 mg/kg i.p. once a week, 5 weeks after start; compared to control group; FIG. 6
Protocol: as §5, §6, §7
The test was performed 5 weeks after the start of the administration to measure the long-term memory and learning ability (reference memory). […] On the following day, two identical objects (rubber objects wrapped with blue rubber tape: columns each having 4 cm diameter and 3.5 cm height) were placed in the box (at a position with a space of 10 cm in length and 10 cm in width from the wall), and the behavior of the mouse was video-recorded for 5 minutes to measure the number of recognitions (the number of times the mouse approached each object within 1 cm) (training trial). […]

[6] = target: T4, PEGylated N-terminus 13 amino acids of inactive GIP (GIP(3-15)) (Homo sapiens, UniProt P09681); assay: Hybridoma screening/cloning ELISA with immobilized antigen (2); type: binding; conditions: hybridoma culture supernatant, immobilized PEGylated GIP(3-15)
T4 construct: made in house; host or cells: peptide synthesis (no expression host)
Protocol: as §8

Molecule: GIP: Mouse-derived GIP (manufactured by AnaSpec, Inc.) dissolved in physiological saline at 500 nM (YAEGTFISDYSIAMDKIRQQDFVNWLLAQRGKKSDWKHNITQ; Gastric inhibitory polypeptide; UniProt P48756 44-85, looked up)
- spontaneous alternation behavior change rate (short-term memory and learning ability) (db/db mice [1]): a decrease in the spontaneous alternation behavior change rate (short-term memory and learning ability) was observed
- novel object recognition rate (long-term memory and learning ability) (db/db mice [2]): a decrease in the novel object recognition rate (long-term memory and learning ability) was observed

B1: monoclonal antibody prepared in Production Example 1: anti-active GIP monoclonal antibody produced by hybridoma 9B9H5-B9 line; H-chain variable region SEQ ID NO: 2, L-chain variable region SEQ ID NO: … (antibody, listed as Mus musculus, V domains shown)
VH: QVQLQQPGAELVKPGASVKLSCKASGYTFTSFWMHWVIQRPGQGLEWIGEMNPSDGRTHFNEKFKTKATLTIDTSSNTAYMELNSLTSEDSAVYYCARRMEDWGQGTLVTVSA
VL: DIKMTQSPSSMYASLGERVTITCKASQDINSYLGWFQQKPGKSPKTLIYGANRLVDGVPSRFSGSGSGQDYSLTISSLEYDDMGIYYCLQYDEFPLTFGAGTKLELKR
- cross-reactivity with GIP(3-42) (450 nm-590 nm absorbance) (GIP(3-42)): does not show cross-reactivity with GIP(3-42)
- reactivity with GIP(1-42) (450 nm-590 nm absorbance) (GIP(1-42)): capable of specifically detecting GIP(1-42)
- spontaneous alternation behavior change rate (short-term memory and learning ability) [3]: an increase in the spontaneous alternation behavior change rate (short-term memory and learning ability) was observed
- ELISA reaction with antigen (1) for measurement [4]: positive for the antigen (1)
- novel object recognition rate (long-term memory and learning ability) [5]: an increase in the novel object recognition rate (long-term memory and learning ability) was observed
- ELISA reaction with antigen (2) for measurement [6]: negative for the antigen (2)
